Reference: patent US20230192896A1 (BIOVERATIV THERAPEUTICS, published 2023)
Numbering of substitutions follows the chain as printed.

B1: BIIB-9-408 (antibody, V domains shown)
VH: QVQLVQSGAEVKKPGASVKVSCKASGYTFTSYYMHWVRQAPGQGLEWMGIINPSGGSTTYAQKFQGRVTMTRDTSTSTVYMELSSLRSEDTAVYYCARDPGAYDDWSGYDDYGMDVWGQGTTVTVSS
VL: EIVLTQSPATLSLSPGERATLSCRASQSVSSYLAWYQQKPGQAPRLLIYDASNRATGIPARFSGSGSGTDFTLTISSLEPEDFAVYYCQQAFVWPPITFGGGTKVEIK
notes: IgG
B2: BIIB-9-629 (antibody, V domains shown)
VH: QVQLVQSGAEVKKPGASVKVSCKASGYTFTSYYMHWVRQAPGQGLEWMGVINPSGGSTSYAQKFQGRVTMTRDTSTSTVYMELSSLRSEDTAVYYCARDPSQDYATGTGWFDPWGQGTLVTVSS
VL: DIQLTQSPSSLSASVGDRVTITCQASQDISNYLNWYQQKPGKAPKLLIYDASNLETGVPSRFSGSGSGTDFTFTISSLQPEDIATYYCQQLDSLPPTFGGGTKVEIK
notes: IgG
B3: BIIB-9-416 (antibody, V domains shown)
VH: QVQLVQSGAEVKKPGASVKVSCKASGYTFTSYYMHWVRQAPGQGLEWMGIINPSGGSTSYAQKFQGRVTMTRDTSTSTVYMELSSLRSEDTAVYYCAREGPMLDYPTYSNWFDPWGQGTLVTVS
VL: EIVMTQSPATLSLSPGERATLSCRASQSVSSYLAWYQQKPGQAPRLLIYDSSNRATGIPARFSGSGSGTDFTLTISSLEPEDFAVYYCQQRVVWPPTFGGGTKVEIK
notes: IgG
B4: BIIB-9-885 (antibody, V domains shown)
VH: QVQLVQSGAEVKKPGASVKVSCKASGYTFTSYYMHWVRQAPGQGLEWMGIINPSGGSTSYAQKFQGRVTMTRDTSTSTVYMELSSLRSEDTAVYYCAREGPMLDYPTYSNWFDPWGQGTLVTVSS
VL: B3 VL with M4L, S51A, N53K, V93I
notes: IgG
B5: BIIB-9-1280 (antibody, V domains shown)
VH: QVQLVQSGAEVKKPGASVKVSCKASGYTFTSYYMVWVRQAPGQGLEWMGIINPSGGSTSYAQKFQGRVTMTRDTSTSTVYMELSSLRSEDTAVYYCARGPWYSYYYMDVWGKGTTVTVSS
VL: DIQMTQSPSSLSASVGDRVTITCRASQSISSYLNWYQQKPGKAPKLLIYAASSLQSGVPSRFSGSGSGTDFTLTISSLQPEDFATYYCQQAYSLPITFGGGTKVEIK
notes: IgG
B6: BIIB-9-440 (antibody, V domains shown)
VH: QLQLQESGPGLVKPSETLSLTCTVSGGSISSSDYYWGWIRQPPGKGLEWIGSIYYSGSTYYNPSLKSRVTISVDTSKNQFSLKLSSVTAADTAVYYCARSPRHKVRGPNWFDPWGQGTLVTVSS
VL: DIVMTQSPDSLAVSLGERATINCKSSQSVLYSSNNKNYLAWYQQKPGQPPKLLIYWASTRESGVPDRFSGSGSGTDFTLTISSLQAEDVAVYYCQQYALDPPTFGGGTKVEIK
notes: IgG
B7: BIIB-9-883 (antibody, V domains shown)
VH: QVQLVQSGAEVKKPGASVKVSCKASGYTFTSYYMHWVRQAPGQGLEWMGIINPSGGSTSYAQKFQGRVTMTRDTSTSTVYMELSSLRSEDTAVYYCARDGRLSYTWDRWGQGTLVTVSS
VL: B2 VL with L4M, S30T, L91A, S93H, L94F, P96F
notes: IgG
B8: BIIB-9-626 (antibody, V domains shown)
VH: QVQLVQSGAEVKKPGASVKVSCKASGYTFTSYYMHWVRQAPGQGLEWMGVINPSGGSTSYAQKFQGRVTMTRDTSTSTVYMELSSLRSEDTAVYYCARDLQYSMTYFDYWGQGTLVTVSS
VL: DIQMTQSPSTLSASVGDRVTITCRASQSISSWLAWYQQKPGKAPKLLIYKASSLESGVPSRFSGSGSGTEFTLTISSLQPDDFATYYCQQDGSYPPLTFGGGTKVEIK
notes: IgG
B9: BIIB-9-451 (antibody, V domains shown)
VH: QLQLQESGPGLVKPSETLSLTCTVSGGSISSSSYYWGWIRQPPGKGLEWIGSISYSGSTYYNPSLKSRVTISVDTSKNQFSLKLSSVTAADTAVYYCARDSGGYYYQGFDYWGQGTLVTVSS
VL: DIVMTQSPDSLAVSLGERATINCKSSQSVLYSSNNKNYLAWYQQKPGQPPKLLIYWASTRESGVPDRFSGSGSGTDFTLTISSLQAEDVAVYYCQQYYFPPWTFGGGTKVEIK
notes: IgG
B10: BIIB-9-564 (antibody, V domains shown)
VH: QVQLQESGPGLVKPSETLSLTCAVSGYSISSGYYWAWIRQPPGKGLEWIGSIYHSGSTYYNPSLKSRVTISVDTSKNQFSLKLSSVTAADTAVYYCARDPGYSWEYFDYWGQGTLVTVSS
VL: DIQMTQSPSSLSASVGDRVTITCRASQSISSYLNWYQQKPGKAPKLLIYAASSLQSGVPSRFSGSGSGTDFTLTISSLQPEDFATYYCQQSVAVPPTFGGGTKVEIK
notes: IgG; also called BIB-4-564
B11: BIIB-9-460 (antibody, V domains shown)
VH: QVQLVQSGAEVKKPGASVKVSCKASGYTFTSYYMHWVRQAPGQGLEWMGIINPSGGSTSYAQKFQGRVTMTRDTSTSTVYMELSSLRSEDTAVYYCARDISTDGESSLYYYMDVWGKGTTVTVSS
VL: EIVMTQSPATLSVSPGERATLSCRASQSVSSNLAWYQQKPGQAPRLLIYGASTRATGIPARFSGSGSGTEFTLTISSLQSEDFAVYYCQQHDNFPFTFGGGTKVEIK
notes: IgG
B12: BIIB-9-469 (antibody, V domains shown)
VH: QVQLVQSGAEVKKPGASVKVSCKASGYTFTSYYMHWVRQAPGQGLEWMGIINPSGGSTSYAQKFQGRVTMTRDTSTSTVYMELSSLRSEDTAVYYCARDLGYGRSYDFDLWGRGTLVTVSS
VL: B11 VL with Y49F, H91S, D92N
notes: IgG
B13: BIIB-9-461 (antibody, V domains shown)
VH: QVQLVQSGAEVKKPGASVKVSCKASGYTFTSYYMHWVRQAPGQGLEWMGIINPSGGSTSYAQKFQGRVTMTRDTSTSTVYMELSSLRSEDTAVYYCARGPTDSSGYLDMDVWGKGTTVTVSS
VL: B11 VL with N32S, D92H, N93H, F94W, F96P
notes: IgG
B14: BIIB-9-588 (antibody, V domains shown)
VH: QVQLVQSGAEVKKPGASVKVSCKASGYTFTSYYMHWVRQAPGQGLEWMGIINPSGGSTTYAQKFQGRVTMTRDTSTSTVYMELSSLRSEDTAVYYCARDGGGSYDYWSGYWYDVWGQGTTVTVSS
VL: B11 VL with H91A, D92Y, F94W
notes: IgG
B15: BIIB-9-611 (antibody, V domains shown)
VH: B8 VH with V50I, D99E, L100V, Q101I, Y102S, S103R, M104V, T105S, Y109L, Q112R
VL: B11 VL with H91D, D92N, N93I, F94H, F96Y
notes: IgG
B16: BIIB-9-419 (antibody, V domains shown)
VH: QVQLVQSGAEVKKPGASVKVSCKASGYTFTSYYMHWVRQAPGQGLEWMGIINPSGGSTSYAQKFQGRVTMTRDTSTSTVYMELSSLRSEDTAVYYCAREPTFYASYFDLWGRGTLVTVS
VL: B3 VL with R91V, V92S, V93T, W94H, P96Y
notes: IgG
B17: BIIB-9-473 (antibody, V domains shown)
VH: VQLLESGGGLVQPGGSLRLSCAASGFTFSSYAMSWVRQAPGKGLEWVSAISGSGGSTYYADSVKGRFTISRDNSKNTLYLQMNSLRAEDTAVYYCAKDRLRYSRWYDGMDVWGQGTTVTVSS
VL: B3 VL with M4L, S51A, V92S, V93F, W94L, P96Y
notes: IgG
B18: BIIB-9-565 (antibody, V domains shown)
VH: QLQLQESGPGLVKPSETLSLTCTVSGGSISSSSYYWGWIRQPPGKGLEWIGSIYYSGSTYYNPSLKSRVTISVDTSKNQFSLKLSSVTAADTAVYYCARAGMYSSYANWFDPWGQGTLVTVSS
VL: B3 VL with M4L, S51A, R91D, V92S, V93N, W94L, P96F
notes: IgG
B19: BIIB-9-619 (antibody, V domains shown)
VH: QVQLVQSGAEVKKPGASVKVSCKASGYTFTSYYMHWVRQAPGQGLEWMGIINPSGGSTSYAQKFQGRVTMTRDTSTSTVYMELSSLRSEDTAVYYCARDGPRVSDYYMDVWGKGTTVTVSS
VL: B3 VL with M4L, S51A, V92D, V93N, P96F
notes: IgG
B20: BIIB-9-425 (antibody, V domains shown)
VH: QVQLVQSGAEVKKPGASVKVSCKASGYTFTSYYMHWVRQAPGQGLEWMGIINPSGGSTSYAQKFQGRVTMTRDTSTSTVYMELSSLRSEDTAVYYCAREPTWDVAYDYWGQGTLVTVS
VL: EIVLTQSPGTLSLSPGERATLSCRASQSVSSDYLAWYQQKPGQAPRLLIYGASSRATGIPDRFSGSGSGTDFTLTISRLEPEDFAVYYCQQYDSHPYTFGGGTKVEIK
notes: IgG
B21: BIIB-9-573 (antibody, V domains shown)
VH: QLQLQESGPGLVKPSETLSLTCTVSGGSISSSSYYWGWIRQPPGKGLEWIGSIYYSGSTYYNPSLKSRVTISVDTSKNQFSLKLSSVTAADTAVYYCARESKTKGYLDLWGRGTLVTVSS
VL: B20 VL with D32S, Y33F, Y92S, D93H, H95P
notes: IgG
B22: BIIB-9-567 (antibody, V domains shown)
VH: B13 VH with G99L, P100G, T101R, D102R, S103Y, S104Y, G105A, L107D, D108G, K114Q
VL: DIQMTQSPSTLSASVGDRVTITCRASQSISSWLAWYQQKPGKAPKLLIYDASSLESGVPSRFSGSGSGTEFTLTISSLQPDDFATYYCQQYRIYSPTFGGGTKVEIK
notes: IgG
B23: BIIB-9-465 (antibody, V domains shown)
VH: B7 VH with H35V, D99S, G100P, R101T, L102D, S103G, T105Y, W106F, R108L, Q111R
VL: DIQMTQSPSTLSASVGDRVTITCRASQSINSWLAWYQQKPGKAPKLLISDASSLESGVPSRFSGSGSGTEFTLTISSLQPDDFATYYCQQYEIFPFTFGGGTKVEIK
notes: IgG

The binders below were run against T1, free FIXa (activated Factor IX) (human, UniProt P00740 47-191; P00740 227-461) (assay: BLI; class meaning: paragraph 914).
T1 construct: BLI antigen bought from Haematologic Technologies (HCIXA-0050); also called factor IXa

Binding result, binds:
B1
B2
B3
B4
B5

The binders below were run against T2, FIXa-SM (FIXa+EGR-CMK) (human, UniProt P00740 47-191; P00740 227-461, EGR-CMK (L-Glu-Gly-Arg chloromethyl ketone) covalently bound to the active site) (assay: BLI; class meaning: paragraph 914).
T2 construct: BLI antigen bought from Haematologic Technologies (HCIXA-EGR); also called FIXa with substrate mimic

Binding result, binds:
B6
B7
B8
B9
B10
B11
B12
B13
B14
B15
B16
B17
B18
B19
B5
B20
B21
B22
B23
